Assay results reported in US11230591.
Where a chain is given by its changes, count along the chain named.

B1: 2-25 (antibody, V domains shown)
VH: QVQLVESGAEVKKPGALVKVSCKASGYTFTNYAIHWVRQASGQRLEWMGWINAGRGNTKYSQKFQGRVTITRDTSASTAYMELSSLRSEDAAVYFCARDESTGDYYYYMDVWGKGTTVTVSS
VL: SYELTQPPSVSVSPGQTASITCSGDRLDDKYASWYQQKAGQSPVLVIYQDNKRPSGIPERFSGSNSGNTATLTISGTQAMDEADYYCQAWDSDTYVFGTGTKVTVL
B2: 1-15 (antibody, V domains shown)
VH: QVQLVASGGGLVKPGGSLRLSCAASEFTFSDYYMTWIRQAPGKGLEWVSYISSSGTTIYYADSVKGRFTVSRDNAKNSLFLQMNSLRAEDTALYYCARDSYSKLVDIEAIEAFDIWGQGTMVTVSS
VL: SYELTQPPSVSVGPGRTARITCGANNIGSKSVHWYQQRPGQAPVLVISFDTDRPSGIPERFSGSNSGNTATLTISRVEAGDEADYFCQVWDRTSDHVVFGGGTKLTVL
B3: 1-64 (antibody, V domains shown)
VH: B2 VH with E26G
VL: B2 VL
B4: 3-7 (antibody, V domains shown)
VH: QVQLVQSGAEVKKPGASVKVSCKTSGYTFNTYAISWVRQAPGQGLEWVGWINTYSGSTKYAQKVQGRVTMTTDTSTSTAYMELRGLRSDDTAVYYCARDGYNWGFLDFWGQGSLVTVSS
VL: DIQMTQSPSSLSASVGDRVTITCRASQGISNYLAWYQQKPGKLPKLLIYAASTLQSGVPSRFSGSGSGTDFTLTISSLQPEDVASYYCQKYNSAPLTFGPGTKVDIK
B5: 1-125 (antibody, V domains shown)
VH: QVQLVESGGGLVKPGGSLRLSCAPAGFNFKDYYMTWIRQAPGKGLEWVSFISSSGQTIYYADSVKGRFTISRDNARNSLYLQMNSLRAEDTAVYYCARDSYSKLVDIVAIEAFDLWGQGTLVSVSS
VL: SYELTQPPSVSVAPGKMARITCGGDNIGSKSVHWYQQRPGQAPVLVIRFDTDRPSRIPERFSGSNSGNTATLAISRVEAGDEADYYCQVWDSSSARLVFGGGTKLTVL
B6: 1-85 (antibody, V domains shown)
VH: QVHLVESGGGLVKPGRSLRLSCAASGFTFSDYYMAWIRQVPGKGLEWVSFISSSGRTIYYADSVKGRFTISRDNAKDSLYLQMHSLRAEDTAVYYCARDSYSKLVDIEAIEAFDIWGRGTMVTVSS
VL: SYELAQPPSVSVAPGKTATIACGGDNIGGKSVHWYLQKAGQAPVLVISYDSDRPSGIPERFSGSNSGNTATLTISRVEAGDEADYFCQVWDRHGDHVVFGGGTKLTVL
B7: 1-175 (antibody, V domains shown)
VH: QVHLVESGGGLVKPGGSLRLSCAASGFTFSDYYMAWIRRAPGKGLEWISFISGSGRTLYHAESVKGRFTVSRDNAKDSLYLHMHSLRDADTAVYYCARDSYSKLVEIEAIEAFDVWGRGTVVTVSS
VL: B6 VL with T17P, T19R, I47M, A83G, H93Q, G94T
B8: 1-32 (antibody, V domains shown)
VH: QVKLVESGGGVVQPGRSLRLSCAGSGFAFDNYAMHWVRQAPGKGLEWVAVISLEGRNKYYAGPAKGRFSISRDNSRNTVHLQMNSLRPEDTAVYFCARDMRYYYDSNGHYRNRYGMDVWGQGTTVIVSS
VL: DIQMTQSPSSLSASVGDSVTITCQASQDINQFVSWYQQKPGKPPKLLIYDASNLESGVPSRFSGSGSGTHFTFTISSLQPDDIATYYCQQYENLFTFGPGTKVDIK
B9: 1-150 (antibody, V domains shown)
VH: QVQLVESGGGLVKPGGSLRLSCAASGFSFSAYYMSWIRQAPGKGLEWISYISSSGNTIYYTDSVKGRFTIARDNAKNSLYLQMNSLRAEDTGLYYCARDSYSKLADIEATEAFDVWGQGTMVAVSS
VL: SYELTQPPSVSVAPGKTARITCGGNNIGSKSVHWYQQKPGQAPVMVIYYDSDRPSGIPERFSGSNSGNTATLTISRVEAGDEADYYCQVWDSGSDRVVFGGGTKLTVL
B10: 3-16 (antibody, V domains shown)
VH: QVQVVQSGAEVKKPGASVMVSCKTSGYRFTIYSIAWMRQAPGQGLEWMGSINTYNGNTKYAEKFQGRVTMSRDTSTSTAYMEVRSLGSADTAMYYCARDAENWGFFDDWGQGTLVTVSS
VL: EIVLTQSPGTVSLSPGERVTLSCRASQSVGRHLAWYQQKPGQPPRLLIYGASTRATGVPDRFSGSGSETEFTLAISSLQSEDFALYYCQQYNTWPYTFGQGTKLEIK

How the values were obtained:
[1] = target: pentameric gH complex on infectious CMV (neutralization assays) (human cytomegalovirus); assay: cell-based or functional assay
[2] = target: recombinant pentameric gH complex (Towne strain) (human cytomegalovirus, Towne strain) (UniProt P17176); assay: BLI competition on His-pentamer; competitor (antibody 2): 3-7
[3] = target: recombinant pentameric gH complex (Towne strain) (human cytomegalovirus, Towne strain) (UniProt P17176); assay: BLI competition on His-pentamer; competitor (antibody 2): 1-32
[4] = target: recombinant pentameric gH complex (Towne strain) (human cytomegalovirus, Towne strain) (UniProt P17176); assay: BLI competition on His-pentamer; competitor (antibody 2): 1-85
[5] = target: recombinant pentameric gH complex (Towne strain) (human cytomegalovirus, Towne strain) (UniProt P17176); assay: BLI competition on His-pentamer; competitor (antibody 2): 2-18
[6] = target: recombinant pentameric gH complex (Towne strain) (human cytomegalovirus, Towne strain) (UniProt P17176); assay: BLI competition on His-pentamer; competitor (antibody 2): 2-25
[7] = target: recombinant pentameric gH complex (Towne strain) (human cytomegalovirus, Towne strain) (UniProt P17176); assay: BLI competition on His-pentamer; competitor (antibody 2): 3-15
[8] = target: recombinant pentameric gH complex (Towne strain) (human cytomegalovirus, Towne strain) (UniProt P17176); assay: BLI competition on His-pentamer; competitor (antibody 2): 3-16
[9] = target: recombinant pentameric gH complex (Towne strain) (human cytomegalovirus, Towne strain) (UniProt P17176); assay: BLI competition on His-pentamer; competitor (antibody 2): 57.4
[10] = target: recombinant pentameric gH complex (Towne strain) (human cytomegalovirus, Towne strain) (UniProt P17176); assay: BLI competition on His-pentamer; competitor (antibody 2): 70.7
[11] = target: recombinant pentameric gH complex (Towne strain) (human cytomegalovirus, Towne strain) (UniProt P17176); assay: BLI competition on His-pentamer; competitor (antibody 2): 1-103
[12] = target: recombinant pentameric gH complex (Towne strain) (human cytomegalovirus, Towne strain) (UniProt P17176); assay: BLI competition on His-pentamer; competitor (antibody 2): 1-150
[13] = target: recombinant pentameric gH complex (Towne strain) (human cytomegalovirus, Towne strain) (UniProt P17176); assay: BLI competition on His-pentamer; competitor (antibody 2): 124.4
[14] = target: recombinant pentameric gH complex (Towne strain) (human cytomegalovirus, Towne strain) (UniProt P17176); assay: BLI competition on His-pentamer; competitor (antibody 2): 270.7
[15] = target: recombinant pentameric gH complex (Towne strain) (human cytomegalovirus, Towne strain) (UniProt P17176); assay: BLI competition on His-pentamer; competitor (antibody 2): 276.1
[16] = target: recombinant pentameric gH complex (Towne strain) (human cytomegalovirus, Towne strain) (UniProt P17176); assay: BLI competition on His-pentamer; competitor (antibody 2): 316.2
[17] = target: recombinant pentameric gH complex (Towne strain) (human cytomegalovirus, Towne strain) (UniProt P17176); assay: BLI competition on His-pentamer; competitor (antibody 2): 324.4
CMV virions = assay: virion ELISA

Sequence of recombinant pentameric gH complex (Towne strain) (human cytomegalovirus, Towne strain) (P17176 30-715, one chain of several): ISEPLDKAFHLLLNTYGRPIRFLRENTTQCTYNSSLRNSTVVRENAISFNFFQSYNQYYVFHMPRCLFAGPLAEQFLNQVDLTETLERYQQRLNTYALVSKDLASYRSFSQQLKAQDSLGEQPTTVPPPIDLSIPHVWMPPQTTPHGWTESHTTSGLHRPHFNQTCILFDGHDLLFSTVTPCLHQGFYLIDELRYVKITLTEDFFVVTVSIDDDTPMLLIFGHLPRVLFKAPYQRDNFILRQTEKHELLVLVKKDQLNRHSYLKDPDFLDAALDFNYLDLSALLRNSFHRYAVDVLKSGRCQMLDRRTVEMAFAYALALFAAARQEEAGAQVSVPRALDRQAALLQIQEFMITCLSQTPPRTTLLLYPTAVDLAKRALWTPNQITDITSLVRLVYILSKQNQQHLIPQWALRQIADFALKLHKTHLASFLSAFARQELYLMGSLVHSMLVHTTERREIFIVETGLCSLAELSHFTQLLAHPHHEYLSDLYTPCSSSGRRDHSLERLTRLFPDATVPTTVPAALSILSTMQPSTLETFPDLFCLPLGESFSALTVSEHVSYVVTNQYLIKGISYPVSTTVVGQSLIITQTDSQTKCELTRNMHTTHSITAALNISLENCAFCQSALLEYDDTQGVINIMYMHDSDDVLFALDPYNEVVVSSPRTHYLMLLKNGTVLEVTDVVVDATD

Row | Binder | EC50 Neutralizing [1] [ng/mL] | IC50 in ARPE-19 [1] [ng/mL] | Pair-wise inhibition (%) [2] [%] | Pair-wise inhibition (%) [3] [%] | Pair-wise inhibition (%) [4] [%] | Pair-wise inhibition (%) [5] [%] | Pair-wise inhibition (%) [6] [%] | Pair-wise inhibition (%) [7] [%] | Pair-wise inhibition (%) [8] [%] | Pair-wise inhibition (%) [9] [%] | Pair-wise inhibition (%) [10] [%] | Pair-wise inhibition (%) [11] [%] | Pair-wise inhibition (%) [12] [%] | Pair-wise inhibition (%) [13] [%] | Pair-wise inhibition (%) [14] [%] | Pair-wise inhibition (%) [15] [%] | Pair-wise inhibition (%) [16] [%] | Pair-wise inhibition (%) [17] [%] | EC50 (CMV virions) [ng/mL] | IC50 in MRC-5 [1] [ng/mL]
1 | B1 | 0.09 | 0.08 | 9 | 2 | 7 | 87 | 104 | 10 | 6 | 15 | 29 | -4 | -17 | 1 | -10 | -25 | -1 | -4 | – | –
2 | B2 | 0.9 | – | – | – | – | – | – | – | – | – | – | – | – | – | – | – | – | – | – | –
3 | B3 | 1 | – | – | – | – | – | – | – | – | – | – | – | – | – | – | – | – | – | – | –
4 | B4 | 80 | 9.5 | 91 | 10 | 35 | 51 | 44 | 102 | 97 | 20 | 38 | 27 | -6 | 35 | 16 | 12 | 21 | 14 | 70 | 19
5 | B5 | 0.9 | – | – | – | – | – | – | – | – | – | – | – | – | – | – | – | – | – | 1400 | –
6 | B6 | 0.9 | 0.13 | 27 | 16 | 87 | 14 | -4 | 33 | 37 | 29 | 36 | 27 | 117 | 24 | 27 | -2 | 29 | 17 | – | –
7 | B7 | 1 | – | – | – | – | – | – | – | – | – | – | – | – | – | – | – | – | – | – | –
8 | B8 | 20 | 0.82 | 8 | 91 | 18 | -1 | -33 | 7 | 10 | 57 | 87 | 15 | 4 | 7 | 97 | -11 | 78 | 6 | – | –
9 | B9 | 1 | 0.31 | 0 | -11 | 61 | -10 | -22 | 6 | 2 | -19 | -32 | 26 | 104 | -22 | -29 | -12 | -22 | -12 | – | 260
10 | B10 | 90 | 17 | 79 | -5 | 16 | -17 | -21 | 95 | 88 | 11 | 2 | 6 | -22 | -1 | -1 | 18 | -7 | -5 | 100 | 37
